The chains are these.
B1: TPR t1 (parent)
chain: GACCAAUCUGCCCUCAGAGCUCGAGAACAUCUUCGGAUGCAGAGGAGGCAGGCUUCGGUGGCGCGAUAGCGCCAACGUCCUCAACCUCCAAUGCAUCCCACCACAUGAUGAUGCCUGAAGAGCCUUGGUUUUUUG

The variants in the series derive from B1. Nature of the series: polymerase ribozyme fitness, log enrichment relative to wild type (log ratio); higher = more active; in vitro selection for triplet polymerase activity. Put shortly: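 Genotype fitness is the logarithm of its enrichment divided by wild-type enrichment, using inverse-variance-weighted averages of replicates. That logarithm is base 2. Enrichment was measured by Illumina sequencing of input and output libraries from one triplicate in vitro selection round, with frozen incubation at −7 °C, on PCR-built, transcribed mutant libraries of each subunit of a heterodimeric triplet polymerase ribozyme, retaining genotypes with ≥10 input reads and ≥1 read per output.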
Turning to C20A C28G C70G A83U C99U G113U, the “polymerase ribozyme fitness (log ratio)” value was -6.88.
The figure for C72A A75C U87G C102A U116A C124U U130A is -5.54.
Then C8G G10U A16C G77U U81A C85A, with -3.62.
Then C8U G10U C72U, with -0.279; and A41C A43U C53U U126C, with -2.72.
Consider G63A G77C A119U, for which the “polymerase ribozyme fitness (log ratio)” value was -2.08.
In the case of A18U G44A U54A C86U U106A, the “polymerase ribozyme fitness (log ratio)” value is -5.25.
In the case of U81C C123A, the “polymerase ribozyme fitness (log ratio)” value is -0.309.
Then A5G C8G G47A G69U C80G, with -3.96; and G19A G63A, with -3.09.
The figure for C40A C56G G61A is -4.03.
Then A16C G45C U59A C72A U112C G135U, with -4.45; and U7G C22G A24G G48U, with -5.74.
With C62A C79U C88G G135U, the “polymerase ribozyme fitness (log ratio)” value is -2.35.
The figure for A37G G113C G135A is -2.17.
The figure for G10A C13U U30G A46C C72U C123G is -6.25.
Then U7C C12A, with -0.242; and A43U U55A C72A G127A, with -2.75.
Regarding G19C C20A, the “polymerase ribozyme fitness (log ratio)” value was -6.28.
Then G45U G47A G63U C82G G93U G117C A119G, with -7.49; and C8A A18C C22G, with -4.25.
As to G36U A121G, the “polymerase ribozyme fitness (log ratio)” value is 0.373.
Then U9A A27U G42U, with -4.71; and A2U C11G, with 0.322.
Then C4G C49A, with -2.14; and C62A G77U C115G, with -2.95.
The figure for U78C C82A C85U G93A is -1.53.
Consider U9G G61U G117A, for which the “polymerase ribozyme fitness (log ratio)” value worked out at 1.58.
C53G A90G: the “polymerase ribozyme fitness (log ratio)” value stood at 0.537.
Then A37U G120A, with 1.2.
Then C64A U78C, with -6.04; and A46U C76A A84C A100C C124A, with -4.99.
The figure for C22G A29C G110U is -4.24; for G42C G45U G48U U131G it is -3.09.
As for G63U U92A, the “polymerase ribozyme fitness (log ratio)” value is -5.39.
As to G45C G48C C53G G107A A121G, the “polymerase ribozyme fitness (log ratio)” value was -5.84.
The figure for C73U A121U U133A is 2.19; for C11G C56G C79U it is -0.259.
The figure for G71U C73G A95C C124U G128U U129C is -7.5; for G45U U96A U132A it is -2.11; for A41U G113A C114U C115A G122U it is -5.49.
As to G48A U59A C72G G120U G135A, the “polymerase ribozyme fitness (log ratio)” value is -2.76.
On to C15U G60C A91U U129A, for which the “polymerase ribozyme fitness (log ratio)” value was -4.69.
Then A16G G44A C97G U112C U133A, with -4.45.
The figure for C4A A119U is -1.66; for C72U A83U it is -1.1; for C101G C102A U130C it is -4.99.
Then C3A C20A C49G A50C G61U, with -5.32; and G69C C114U, with -1.95; and G47U G61U, with -2.36.
For the variant C8U G42A A111G U116A A121G C124G, the “polymerase ribozyme fitness (log ratio)” value was -2.21.
Then C3U G47A, with -0.64; and C20A C64G C114A, with -7.24.
Then C20A U32C C56U G57U G60U C62G, with -5.9; and C72U C79A U106C, with -1.81; and G57U, with -0.128.
The figure for A2C U14G U54G U96G A100U G117A U126A U129G is -5.8; for C49G A50U C72A C94A it is -2.42; for C12G U33G it is -4.76.
Regarding A2C G52C, the “polymerase ribozyme fitness (log ratio)” value was -2.58.
Then G52A G69U G71U C102A, with -4.53; and A2C G42C U96A C123U, with -3.31; and C101G U133G, with -2.02.
Then A6U G48C, with -0.598; and C28A C89U U112A, with -1.62; and G45U C72G C89G, with -3.39.
On to A43C C94G, for which the “polymerase ribozyme fitness (log ratio)” value was -4.54.
Then C3A C4U C72U C123G, with -0.302; and C40A G58C C72G U78G C79A, with -5.64; and U14G G63A, with -2.49.
The figure for C22A U81C is -5.67; for G10A C114G G135A it is -3.42.
Consider C11U G19A C49U C56U U59C C114U, for which the “polymerase ribozyme fitness (log ratio)” value was -2.93.
Then C8G C89A G117A U129A, with -2.73; and G63C G117C A119U, with -4.1.
With G61C A90U G93A, the “polymerase ribozyme fitness (log ratio)” value is -4.85.
Turning to A83G G110A, the “polymerase ribozyme fitness (log ratio)” value is -1.35.
Turning to C49A G128C, the “polymerase ribozyme fitness (log ratio)” value was -3.42.
Then C40U C70A C85U G135U, with -4.91; and C49A U116G, with -2.39.
The figure for C70A G71C is -4.68; for A26G U30A C104G C115A it is -5.53.
In the case of C12U C79U, the “polymerase ribozyme fitness (log ratio)” value stood at 0.083.
For the variant C12U G69C U81C G110U, the “polymerase ribozyme fitness (log ratio)” value was -3.57.
Then A66C A90G C114G, with -4.05.
Then A46G C56A A91U, with -2.49.
Then U55C C72A U78C C79U A121G, with 2.46; and A41C U126G U130G, with -4.83.
Consider C11G G47U, for which the “polymerase ribozyme fitness (log ratio)” value is -0.345.
Then C40G C49U, with -2.95; and U33G U130A, with -5.01.
Then C64U U106C, with -0.52.
Then G48C C49G A84U C124U, with -1.8; and G44U A84U A118G, with -2.17.
Turning to G17A G61U C85A C97U, the “polymerase ribozyme fitness (log ratio)” value was -4.18.
The figure for C12U G36U is -0.34; for C22A C53A C94U G110U it is -6.9.
Then C79G C124G, with -0.0918; and C22A A27C C56U C114A U125A, with -4.58.
The figure for G44A C72G U112G G117A is -5.1.
As for C82U U112A U130G, the “polymerase ribozyme fitness (log ratio)” value turned out to be 0.499.
Then G42C G44U G63U C123A G128C, with -3.33; and C56U G93C, with -0.768.
Regarding G10A C56G G117A, the “polymerase ribozyme fitness (log ratio)” value is -3.95.
The figure for C15G G52U C89G G117C is -1.36; for A16U C56A G69U G117U it is -2.35.
As to C72U A84U C101A C115U G127A G128C, the “polymerase ribozyme fitness (log ratio)” value was -6.94.
U129G U130A: the “polymerase ribozyme fitness (log ratio)” value is -2.04.
Then C11G G117U G127U, with -3.47.
Then C56U G61A U112G A121U, with -6.37.
Take C13A U87A U106A: the “polymerase ribozyme fitness (log ratio)” value was -2.48.
As for C8A C79U C98G C114U, the “polymerase ribozyme fitness (log ratio)” value was -6.7.
The figure for A6U G39A A74C A91U is -2.33; for C40G G58C G60U C101U U126C it is -2.69.
Then C8U G19C G42U C62G A91G C123U, with -2.98; and A46U G71U A118G, with -0.0825; and G10A C40U G69C C123G, with -0.405.
Then C13U C88A, with -0.243; and G61U C102U, with -1.65.
Regarding U9A A74G C104A C123A, the “polymerase ribozyme fitness (log ratio)” value is -0.249.
The figure for G45C C102G A121U U126G G128U is -4.67.
Then A37C U55C, with -1.17.
The figure for A46C C73A is -1.64; for C49A G93U U125A U131G it is -2.24; for C73A C114G it is -2.17.
Turning to A68G C73U, the “polymerase ribozyme fitness (log ratio)” value is -2.42.
The figure for C56U A105U G122A is -2.96.
C49A G63U C94U A118G: the “polymerase ribozyme fitness (log ratio)” value is -1.43.
As to A91U G120U, the “polymerase ribozyme fitness (log ratio)” value is -1.93.
Then G25C G61U, with -3.53; and G10U A46C, with -0.286.
The figure for C34A G48C G77A is -2.78; for C12U A18C G71U U131C it is -1.9.
Then A43G C64U C82G C114U A119G U131A, with -1.99.
As to A27U C49G G51U C79G, the “polymerase ribozyme fitness (log ratio)” value is -6.98.
The figure for A5G A26U U32C is -2.95; for G19U A50U C124G it is -2.97.
The figure for C12U A29C U131G is -2.88.
Then U7C G17A G63U A121C, with -1.33; and C70U C72G C115U G117A, with -5.53; and G42U G51C, with -6.75.
For the variant C11G C34U C86G A119U, the “polymerase ribozyme fitness (log ratio)” value was -5.27.
Then C3G C11A G36C C64U, with -3.94.
Then A5G C12A U132A U133A, with -1.41.
On to U38A G61U, for which the “polymerase ribozyme fitness (log ratio)” value was -0.881.
Then C4G A5U, with -2.76; and G39C A66C, with -1.94.
On to A18U U92G, for which the “polymerase ribozyme fitness (log ratio)” value was -3.54.
Then C72U A95C C97U, with -2.94.
As to C34G G120C, the “polymerase ribozyme fitness (log ratio)” value was -4.78.
The figure for G52C C62U C72A C82U A119U is -1.34; for C20U G45U it is -2.33.
For the variant A5C C79U C104A, the “polymerase ribozyme fitness (log ratio)” value is -2.03.
The figure for G69U U81G U116C is -1.49.
The figure for C49U U59A U78C A84G is -1.51; for C28U C80U A90G C124G it is -0.852.
The figure for A50U G52C A83C is -2.39; for A24G G47A it is -2.63.
With G17C U21A G39A C72A U112C C115A, the “polymerase ribozyme fitness (log ratio)” value is -0.984.
In the case of G47C C49G U96A, the “polymerase ribozyme fitness (log ratio)” value is -2.52.
For C8A C115A, the “polymerase ribozyme fitness (log ratio)” value was 0.286.
Then U33G C70U G120U, with -6.7; and G48U U55G G69C G93U, with -2.93; and G60C A95C, with -1.25.
For the variant G71U C72A C89A G117A, the “polymerase ribozyme fitness (log ratio)” value is -5.63.
Then G77U U78C U87G A121U U130G, with 2.02; and A5C G51A C62U U78G, with -3.87.
